Residue numbers refer to the chain shown, from its start. One block for each binder: values may come before it.
Assays:
[1] = target: T1, recombinant human GPC-3 protein (human, UniProt P51654 25-559, limits assumed); experiment: SPR, Biacore T200
T1 construct: also called glypican-3; recombinant GPC-3 protein
Procedure: Affinity of 24 anti-GPC-3 IgG₁ antibodies was measured via Surface Plasmon Resonance (SPR) analysis using Biacore™ T200 system and shown in Table E3 (below).

[2] = target: T1, recombinant human GPC-3 protein; experiment: binding ELISA with biotin-hGPC-3, EC50 calculated from the curves of FIG. 1A to 1C

Kd [1]: 22.9 nM | koff [1]: 0.00609 s⁻¹ | kon [1]: 266000 M⁻¹ s⁻¹ | EC50 [2]: 6.61 nM
B1: anti-GPC-3 IgG1 clone 4A12 (antibody, V domains shown)
VH: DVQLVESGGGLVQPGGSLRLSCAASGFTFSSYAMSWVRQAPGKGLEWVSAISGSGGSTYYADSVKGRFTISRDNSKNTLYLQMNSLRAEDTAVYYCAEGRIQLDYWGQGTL
VL: LPVLTQPPSVSVSPGQTARITCSGYELGDKYAFWYQQKPGQSPVLVIYQDTKRPSGIPERFSGSSSGDTATLIISGTQILDEADYYCQAWDSSTHVVFGGGTK
notes: Tested as IgG1; also called monoclonal antibody 4A12

Kd [1]: 19.7 nM | koff [1]: 0.0147 s⁻¹ | kon [1]: 748000 M⁻¹ s⁻¹ | EC50 [2]: 1.65 nM
B2: anti-GPC-3 IgG1 clone 1H10 (antibody, V domains shown)
VH: QLQLQESGGGLVQPGGSLRLSCAASGFTFSSYVMSWVRQAPGKGLEWVSTISGSGGSTYYADSVKGRFTISRDNSKNTLYLQMSSLRAEDTAVYYCVMGWYFDLWGRGTL
VL: EIVLTQSPGTLSLSPGERATLSCRASQSVSSSYLAWYQQKPGQAPRLLIYDASNRATGIPARFSGSGSGTDFTLTISSLEPEDFAVYYCQQRSNWPPRATFGQGTR
notes: Tested as IgG1; also called monoclonal antibody 1H10

Kd [1]: 12.5 nM | koff [1]: 0.000946 s⁻¹ | kon [1]: 75700 M⁻¹ s⁻¹ | EC50 [2]: 15.6 nM
B3: anti-GPC-3 IgG1 clone 4A5 (antibody, V domains shown)
VH: EVQLVQSGAEVKKPGASVKVSCKASGYTFTSYGISWVRQAPGQGLEWMGWISAYNGNTNYAQKLQGRVTMTTDTSTSTAYMELRSLRSDDTAVYYCARDGLSSSWFYYYYGMDVWGQGTT
VL: not shown
notes: Tested as IgG1; also called monoclonal antibody 4A5

Kd [1]: 8.18 nM | koff [1]: 0.000472 s⁻¹ | kon [1]: 57700 M⁻¹ s⁻¹ | EC50 [2]: 20.9 nM
B4: anti-GPC-3 IgG1 clone 3C6 (antibody, V domains shown)
VH: QVQLQESGGGVVQPGRSLRLSCAASGFTFSSYAMHWVRQAPGKGLEWVAVISYDGSNKYYADSVKGRFTISRDNSKNTLYLQMNSLRAEDTAVYYCAYGRYNWNLYFDYWGQGTL
VL: NFMLTQPHSVSESPGKTVTISCTGSSGSIASNYVQWYQQRPGSVPTTVIYEDNQRPSGVPDRFSGSIDSSSNSASLTISGLKTEDEADYYCQSFDSSNYWVFGGGTK
notes: Tested as IgG1; also called monoclonal antibody 3C6

Kd [1]: 31.2 nM | koff [1]: 0.00783 s⁻¹ | kon [1]: 251000 M⁻¹ s⁻¹ | EC50 [2]: 6.76 nM
B5: anti-GPC-3 IgG1 clone 3C12 (antibody, V domains shown)
VH: QVTLKESGPTLVKPTQTLTLTCTFSGFSLSTSGVGVGWIRQPPGKALEWLALIYWNDDKRYSPSLKSRLTITKDTSKNQVVLTMTNMDPVDTATYYCAHSRIAARRVLDYWGQGTL
VL: QSVLTQPPSASVAPGKTARITCGGNNIGSKSVHWYQQKPGQSPVLVIYQDTKRPSGIPERFSGSNSGNTATLTISGAQPMDEADYYCQAWYSTIMVFGGGTK
notes: Tested as IgG1; also called monoclonal antibody 3C12

Kd [1]: 14.1 nM | koff [1]: 0.0134 s⁻¹ | kon [1]: 949000 M⁻¹ s⁻¹ | EC50 [2]: 1.95 nM
B6: anti-GPC-3 IgG1 clone 1C4 (antibody, V domains shown)
VH: QVQLVQSGGGLVKPGRSLRLSCTASGFTFGDYAMHWVRQAPGKGLEWVAVISYDGSNKYYADSVKGRFTISRDNSKNTLYLQMNSLRAEDTAVYYCARDYGDYYRPYGMDVWGQGTT
VL: DIQMTQSPSTLSASVGDRVTITCRASQSISKWLAWYQHKPGKAPKVLIYKASTLQSGVPSRFSGSGSGTEFTLTISSLQPEDFATYYCQQLNSYPLTFGGGTK
notes: Tested as IgG1; also called monoclonal antibody 1C4

Kd [1]: 12.4 nM | koff [1]: 0.0038 s⁻¹ | kon [1]: 306000 M⁻¹ s⁻¹ | EC50 [2]: 11.9 nM
B7: anti-GPC-3 IgG1 clone 2B5 (antibody, V domains shown)
VH: QVQLQESGGGVVQPGRSLRLSCAASGFTFSSYAMHWVRQAPGKGLEWVAVISYDGSNKYYADSVKGRFTISRDNSKNTLYLQMNSLRAEDTAVYYCAKEGTYYYDSSGYWDYYYGMDVWGQGTT
VL: DVVMTQSPLSLPVTPGEPASISCRSSQSLLDSDGYNFLDWYVQKPGQSPQRLIYLGSIRASGVPDRFSGSGSGTDFTLKISRVEADDVGVYYCMQALQTPWTFGQGTK
notes: Tested as IgG1; also called monoclonal antibody 2B5

Kd [1]: 12.4 nM | koff [1]: 0.00188 s⁻¹ | kon [1]: 151000 M⁻¹ s⁻¹ | EC50 [2]: 10.8 nM
B8: anti-GPC-3 IgG1 clone 3A9 (antibody, V domains shown)
VH: QVQLQQWGAGLLKPSETLSLTCAVYGGSFSGYYWSWIRQPPGKGLEWIGEINHSGSTNYNPSLKSRVTISVDTSKNQFSLKLSSVTAADTAVYYCARLYKRRPFDYWGQGTL
VL: not shown
notes: Tested as IgG1; also called monoclonal antibody 3A9

Kd [1]: 27.6 nM | koff [1]: 0.00315 s⁻¹ | kon [1]: 114000 M⁻¹ s⁻¹ | EC50 [2]: 10.2 nM
B9: anti-GPC-3 IgG1 clone 1A12 (antibody, V domains shown)
VH: B8 VH with V24A
VL: ETTLTQSPGTLSLSPGERATLSCRASQSISSIYLAWYQQKPGQAPRLLIYGASRRATGIPDRFSGSGSGTDFTLTISRLEPEDFAVYYCQQYGSSLRTFGQGTK
notes: Tested as IgG1; also called monoclonal antibody 1A12

Kd [1]: 16.2 nM | koff [1]: 0.00233 s⁻¹ | kon [1]: 144000 M⁻¹ s⁻¹ | EC50 [2]: 50.1 nM
B10: anti-GPC-3 IgG1 clone 1E1 (antibody, V domains shown)
VH: B8 VH
VL: VTTLTQSPGTLSLSPGERATLSCRASESVSSRYLAWYQQRPGQAPRLLIYGASRRATGSPERFSGGGSGTDFTLTISRLEPEDFAVYYCQHYGNSPGTFGQGTK
notes: Tested as IgG1; also called monoclonal antibody 1E1

Kd [1]: 12.5 nM | koff [1]: 0.00169 s⁻¹ | kon [1]: 135000 M⁻¹ s⁻¹ | EC50 [2]: 11 nM
B11: anti-GPC-3 IgG1 clone 3G12 (antibody, V domains shown)
VH: B8 VH
VL: B9 VL with I29V, I32S, P41R, T70S, L96P, R97S
notes: Tested as IgG1; also called monoclonal antibody 3G12

Kd [1]: 7.2 nM | koff [1]: 0.00129 s⁻¹ | kon [1]: 179000 M⁻¹ s⁻¹ | EC50 [2]: 10.3 nM
B12: anti-GPC-3 IgG1 clone 1F4 (antibody, V domains shown)
VH: B8 VH with A87V
VL: B10 VL with V1E, E27Q, R32T, R40K
notes: Tested as IgG1; also called monoclonal antibody 1F4

Kd [1]: 12.9 nM | koff [1]: 0.00195 s⁻¹ | kon [1]: 151000 M⁻¹ s⁻¹ | EC50 [2]: 12.3 nM
B13: anti-GPC-3 IgG1 clone 4G4 (antibody, V domains shown)
VH: B8 VH
VL: B9 VL with I29V, I32S, G51N, T70A, E80D, Y88F, L96P, R97Q
notes: Tested as IgG1; also called monoclonal antibody 4G4

Kd [1]: 14.7 nM | koff [1]: 0.00181 s⁻¹ | kon [1]: 124000 M⁻¹ s⁻¹ | EC50 [2]: 2.61 nM
B14: anti-GPC-3 IgG1 clone 2F1 (antibody, V domains shown)
VH: EVQLVQSGAEVKKPGSSVKVSCKASGGTFSSYAISWVRQAPGQGLEWMGGIIPIFGTANYAQKFQGRVTITADESTSTAYMELSSLRSEDTAVYYCARDSPYYYYMDVWGKGTT
VL: DVVMTQSPLFLPVTLGQPASISCRSSQSLVYSDGNTYLSWFQQRPGQSPRRLVYKVSSRDSGVPDRFSGSGSGTDFTLKISRVEAEDVGVYYCMQGTHWPRTFGQGTK
notes: Tested as IgG1; also called monoclonal antibody 2F1

Kd [1]: 10.5 nM | koff [1]: 0.00172 s⁻¹ | kon [1]: 164000 M⁻¹ s⁻¹ | EC50 [2]: 5.29 nM
B15: anti-GPC-3 IgG1 clone 4F9 (antibody, V domains shown)
VH: EVQLVQSGAEVKKPGASVKVSCKASGYTFRNYGISWVRQAPGQGLEWMGWISAYNGNTNYAQKLQGRVTMTTDTSTSTAYMELRSLRSDDTAVYYCARADSSSWYVGTYYYYYGMDVWGQGTT
VL: not shown
notes: Tested as IgG1; also called monoclonal antibody 4F9

Kd [1]: 33.9 nM | koff [1]: 0.00596 s⁻¹ | kon [1]: 176000 M⁻¹ s⁻¹ | EC50 [2]: 5.42 nM
B16: anti-GPC-3 IgG1 clone 1H1 (antibody, V domains shown)
VH: QVQLQESGAGLLRPSETLSLTCAVYGGSFSGYYWSWIRQPPGKGLEWLGEISHSGSTNYNPSLKSRVTISVDTSKNQFSLKLSSVTAADAAVYYCARWVWSGYYNGEGYFDLWGRGTL
VL: B9 VL with I29V, I32S, R54S, S66R, S77T, Q91Y, L96P
notes: Tested as IgG1; also called monoclonal antibody 1H1

Kd [1]: 15.5 nM | koff [1]: 0.00229 s⁻¹ | kon [1]: 147000 M⁻¹ s⁻¹ | EC50 [2]: 7.59 nM
B17: anti-GPC-3 IgG1 clone 4G11 (antibody, V domains shown)
VH: QVQLQESGPGLVKPSGTLSLTCAVSGGSISSSNWWSWVRQPPGKGLEWIGEIYHSGSTNYNPSLKSRVTISVDKSKNQFSLKLSSVTAADTAVYYCARDTSGVAFDYWGQGTL
VL: EIVLTQSPGTLSLSPGERATLSCRASQSVSSSYLAWYQQKPGQAPRLLIYGASSRATGIPDRFSGGGSGTDFTLTISRLEPEDSAVYYCQQYDHSPTFGQGTK
notes: Tested as IgG1; also called monoclonal antibody 4G11

Kd [1]: 32.4 nM | koff [1]: 0.0035 s⁻¹ | kon [1]: 108000 M⁻¹ s⁻¹ | EC50 [2]: 45.5 nM
B18: anti-GPC-3 IgG1 clone 3D12 (antibody, V domains shown)
VH: EVQLVQSGAEVKKPGSSVKVSCKASGGTFSSYAISWVRQAPGQGLEWMGGIIPIFGTANYAQKFQGRVTITADKSTSTAYMELSSLRSEDTAVYYCARGIAARPSYYYYMDVWGKGTT
VL: not shown
notes: Tested as IgG1; also called monoclonal antibody 3D12

Kd [1]: 4.18 nM | koff [1]: 0.00257 s⁻¹ | kon [1]: 615000 M⁻¹ s⁻¹ | EC50 [2]: 1.42 nM
B19: anti-GPC-3 IgG1 clone 1D2 (antibody, V domains shown)
VH: B18 VH with G99E, I100W, A101Q, A102Q, R103Q, P104L, S105V, Y106P, Y107L, Y108G
VL: ETTLTQSPGTLSLSPGERATLSCRASHSVSSNFLAWYQQKPGQAPRLLIYAASSRTTGVPDRFSGSGSGTDFTLTISRLEPEDSAVYYCQQYGYSPLYTFGQGTK
notes: Tested as IgG1; also called monoclonal antibody 1D2

Kd [1]: 17.2 nM | koff [1]: 0.00293 s⁻¹ | kon [1]: 170000 M⁻¹ s⁻¹ | EC50 [2]: 1.17 nM
B20: anti-GPC-3 IgG1 clone 1D3 (antibody, V domains shown)
VH: QVQLVQSGAEVKKPGASVKVSCKASGYTFTGYYMHWVRQAPGQGLEWMGWINPNSGGTNYAQNFQGRVTITRDTSASTAYMELSSLRSEDTAVYYCARGSWQTGSFDIWGQGTT
VL: SYELTQPPSVSGTPGQSVTISCSGSNSNLGSNYVYWYQVVPGTAPKLVIYRNKYRPPGVPDRFSGSKSGTSASLAISGLRSDDEAEYYCSGWDDSLSGRLFGGGTK
notes: Tested as IgG1; also called monoclonal antibody 1D3

Kd [1]: 44.2 nM | koff [1]: 0.0137 s⁻¹ | kon [1]: 311000 M⁻¹ s⁻¹ | EC50 [2]: 4.1 nM
B21: anti-GPC-3 IgG1 clone 4H1 (antibody, V domains shown)
VH: EVQLVQSGGGVVQPGRSLRLSCAASGFTFSSYAMHWVRQAPGKGLEWVAVISYDGSNKYYADSVKGRFTISRDNSKNTLYLQMNSLRAEDTAVYYCARAPGLEDYWGQGTL
VL: DIQMTQSPSSLSASVGDRVTITCRASQSISSYLNWYQQKPGTAPKLLIYAASSSLQSGVPSRFSGSGSGTDFALTISSLQPEDFATYYCLQDYNYPLTFGGGTK
notes: Tested as IgG1; also called monoclonal antibody 4H1

Kd [1]: 13.8 nM | koff [1]: 0.00552 s⁻¹ | kon [1]: 399000 M⁻¹ s⁻¹ | EC50 [2]: 10.6 nM
B22: anti-GPC-3 IgG1 clone 1F1 (antibody, V domains shown)
VH: QVQLVQSGAEVKKPGASVKVSCKASGYTFTSYGISWVRQAPGQRLEWMGWINAGNGNTKYSQKFQGRVTITRDTSASTAYMELSSLRSEDTAVYYCATVVYWGQGTL
VL: EIVLTQSPLSLPVTPGEPASISCRSSQSLLHSNGYNYLDWYLQKPGQSPQILIYLGSHRASGVPDRFSGSASGTDFTLKISRVEAEDVGVYYCMQALQTPLTFGGGTK
notes: Tested as IgG1; also called monoclonal antibody 1F1

— patent publication US20260042862A1 (AGENCY FOR SCIENCE TECHNOLOGY AND RESEARCH, published 2026)
